Experimental data: doi:10.1101/2025.09.02.671137 (bioRxiv, 2025)
Changes are numbered by the printed parent chain.

B1: Cdc13 (recombinant full-length, Cdc13-Flag) (natural protein, S. cerevisiae, UniProt P32797 1-924, looked up)
chain: MDTLEEPECPPHKNRIFVSSSKDFEGYPSKAIVPVQFVALLTSIHLTETKCLLGFSNFERRGDQSQEDQYLIKLKFKDRGSERLARITISLLCQYFDIELPDLDSDSGASPTVILRDIHLERLCFSSCKALYVSKHGNYTLFLEDIKPLDLVSVISTISTKSTNSSKHSSSELISECDLNNSLVDIFNNLIEMNRDEKNRFKFVKLIHYDIELKKFVQDQQKVLSQKSKAAAINPFFVPNRLGIPYIESQNEFNSQLMTLNVDEPTTDISNMGEEMHDSADPIEDSDSSTTSSTGKYFSSKSYIQSQTPERKTSVPNNWHDDDSGSKRKRKLSFHSPNASSIRKAISYEQLSLASVGSVERLEGKIVGMNPPQFASINEFKYCTLKLYFTQLLPNVPDKVLVPGVNCIEIVIPTRERICELFGVLNCQSDKISDILLLEKPDRISVEVERILWDNDKTASPGMAVWSLKNISTDTQAQAQVQVPAQSSASIDPSRTRMSKMARKDPTIEFCQLGLDTFETKYITMFGMLVSCSFDKPAFISFVFSDFTKNDIVQNYLYDRYLIDYENKLELNEGFKAIMYKNQFETFDSKLRKIFNNGLRDLQNGRDENLSQYGIVCKMNIKVKMYNGKLNAIVRECEPVPHSQISSIASPSQCEHLRLFYQRAFKRIGESAISRYFEEYRRFFPIHRNGSHLAKLRFDEVKHEPKKSPTTPALAEHIPDLNADVSSFDVKFTDISSLLDSSARLPRPQQTHKSNTLYSCEGRIIAIEYHASDLCFHITNELPLLQTRGLAPERVLQLHIITSKNFAYFFNRSSAYLQRQPLEEKYTQLAQFLGHSFKFNITSSLTLFPDTTVALQIWCPIECTFRELQQQLAHPKVAAAPDSGSLDCAINATVNPLRLLAAQNGVTVKKEEDNDDDAGAVPTS
B2: Tel14 (dsDNA)
DNA 1: ATAATGATAAGACGTAGAGTGGGTGTGTGTGTGGGGTGGT
DNA 2: ACACCCACTCTACGTCTTATCATTAT
B3: Tel22 (dsDNA)
DNA 1: ATAATGATAAGACGTAGAGTGGGTGTGTGTGTGGGGTGGTGTGTGTGG
DNA 2: ACACCCACTCTACGTCTTATCATTAT
B4: ssTel22 (ssDNA)
DNA: TGTGGGTGTGGTGTGGGTGTGG
B5: L-Tel22 (dsDNA)
DNA 1: TTCAGACAACAGTAGACTACAAGGATGACGACAAGATTAAGCTTTCTTATGTGGGTGTGTGTGTGGGGTGGTGTGTGTGG
DNA 2: ACACCCACATAAGAAAGCTTAATCTTGTCGTCATCCTTGTAGTCTACTGTTGTCTGAA
B6: Tel7 (dsDNA)
DNA 1: ATAATGATAAGACGTAGAGTGGGTGTGTGTGTG
DNA 2: ACACCCACTCTACGTCTTATCATTAT
B7: ds26 (dsDNA)
DNA 1: ATAATGATAAGACGTAGAGTGGGTGT
DNA 2: ACACCCACTCTACGTCTTATCATTAT
B8: ssTel7 (ssDNA)
DNA: GTGTGGT

Key:
SEC = biological target: the molecule itself; assay: SEC
Cdc13 [1] = biological target: T1, Cdc13 (Saccharomyces cerevisiae, UniProt P32797 1-924); assay: EMSA
T1 sequence: B1 chain

Cdc13-K504E = biological target: T2, Cdc13-K504E (Saccharomyces cerevisiae, UniProt P32797 1-924, K504E); assay: EMSA
T2 sequence: B1 chain with K504E

Ku (Ku70-Ku80);Cdc13 = Ku (Ku70-Ku80);Cdc13 (Saccharomyces cerevisiae;Saccharomyces …, UniProt P32807;Q04437;P32797 1-602;1-629;1-924, |); assay: EMSA
Cdc13 [2] = biological target: T1, Cdc13; assay: DNase I footprinting
Cdc13-OB234 = biological target: T3, Cdc13-OB234 (Saccharomyces cerevisiae, UniProt P32797 341-924); assay: DNase I footprinting
T3 sequence: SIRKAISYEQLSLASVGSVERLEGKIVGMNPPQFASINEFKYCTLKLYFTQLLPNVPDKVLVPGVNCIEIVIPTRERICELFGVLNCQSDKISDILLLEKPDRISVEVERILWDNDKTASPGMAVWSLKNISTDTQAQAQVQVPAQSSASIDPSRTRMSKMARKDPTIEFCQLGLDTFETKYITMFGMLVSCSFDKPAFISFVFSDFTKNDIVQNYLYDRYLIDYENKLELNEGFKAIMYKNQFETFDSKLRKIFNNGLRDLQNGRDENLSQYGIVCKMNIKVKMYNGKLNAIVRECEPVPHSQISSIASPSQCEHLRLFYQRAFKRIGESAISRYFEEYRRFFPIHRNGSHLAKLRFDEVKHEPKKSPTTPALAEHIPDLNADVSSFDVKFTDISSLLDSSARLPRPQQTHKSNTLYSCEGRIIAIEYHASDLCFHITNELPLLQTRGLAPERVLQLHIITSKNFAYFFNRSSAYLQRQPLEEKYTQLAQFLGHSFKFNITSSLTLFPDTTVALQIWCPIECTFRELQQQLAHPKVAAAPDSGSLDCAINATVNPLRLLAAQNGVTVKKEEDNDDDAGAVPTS

RPA = RPA (UniProt P22336;P26754;P26755 1-621;1-273;1-122); assay: EMSA
Cdc13 [3] = biological target: T1, Cdc13; assay: EMSA; remark: listed apart in the source

Chain of RPA (P22336 whole entry, chain 1 of 3): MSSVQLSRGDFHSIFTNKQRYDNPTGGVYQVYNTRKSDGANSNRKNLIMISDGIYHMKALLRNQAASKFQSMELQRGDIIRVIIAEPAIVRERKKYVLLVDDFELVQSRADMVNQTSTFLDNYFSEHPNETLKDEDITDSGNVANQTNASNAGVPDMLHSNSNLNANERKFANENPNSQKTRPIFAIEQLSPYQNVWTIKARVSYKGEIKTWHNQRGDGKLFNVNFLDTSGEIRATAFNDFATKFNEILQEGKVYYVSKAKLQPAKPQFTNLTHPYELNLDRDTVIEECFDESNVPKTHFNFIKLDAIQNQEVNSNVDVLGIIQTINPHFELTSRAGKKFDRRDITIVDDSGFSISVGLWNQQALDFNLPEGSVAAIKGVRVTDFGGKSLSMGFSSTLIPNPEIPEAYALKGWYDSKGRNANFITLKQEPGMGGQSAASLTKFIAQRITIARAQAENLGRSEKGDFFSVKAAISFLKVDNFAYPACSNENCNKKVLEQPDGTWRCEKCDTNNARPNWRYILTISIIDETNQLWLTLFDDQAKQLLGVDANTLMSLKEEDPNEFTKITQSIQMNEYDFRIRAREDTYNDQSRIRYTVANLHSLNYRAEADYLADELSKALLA
Chain of RPA (P26754 whole entry, chain 2 of 3): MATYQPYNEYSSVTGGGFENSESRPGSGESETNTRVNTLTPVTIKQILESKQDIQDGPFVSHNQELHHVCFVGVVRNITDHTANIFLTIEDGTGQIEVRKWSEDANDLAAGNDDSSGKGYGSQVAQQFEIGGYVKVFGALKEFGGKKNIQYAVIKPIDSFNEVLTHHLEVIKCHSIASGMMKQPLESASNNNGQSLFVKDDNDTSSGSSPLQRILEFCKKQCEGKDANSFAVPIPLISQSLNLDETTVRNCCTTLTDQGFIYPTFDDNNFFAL
Chain of RPA (P26755 whole entry, chain 3 of 3): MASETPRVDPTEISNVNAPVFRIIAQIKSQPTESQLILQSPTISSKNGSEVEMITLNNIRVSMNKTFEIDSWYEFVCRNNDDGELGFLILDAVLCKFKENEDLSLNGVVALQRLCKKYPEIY
Chain of Ku (Ku70-Ku80);Cdc13 (P32807 whole entry, chain 1 of 2): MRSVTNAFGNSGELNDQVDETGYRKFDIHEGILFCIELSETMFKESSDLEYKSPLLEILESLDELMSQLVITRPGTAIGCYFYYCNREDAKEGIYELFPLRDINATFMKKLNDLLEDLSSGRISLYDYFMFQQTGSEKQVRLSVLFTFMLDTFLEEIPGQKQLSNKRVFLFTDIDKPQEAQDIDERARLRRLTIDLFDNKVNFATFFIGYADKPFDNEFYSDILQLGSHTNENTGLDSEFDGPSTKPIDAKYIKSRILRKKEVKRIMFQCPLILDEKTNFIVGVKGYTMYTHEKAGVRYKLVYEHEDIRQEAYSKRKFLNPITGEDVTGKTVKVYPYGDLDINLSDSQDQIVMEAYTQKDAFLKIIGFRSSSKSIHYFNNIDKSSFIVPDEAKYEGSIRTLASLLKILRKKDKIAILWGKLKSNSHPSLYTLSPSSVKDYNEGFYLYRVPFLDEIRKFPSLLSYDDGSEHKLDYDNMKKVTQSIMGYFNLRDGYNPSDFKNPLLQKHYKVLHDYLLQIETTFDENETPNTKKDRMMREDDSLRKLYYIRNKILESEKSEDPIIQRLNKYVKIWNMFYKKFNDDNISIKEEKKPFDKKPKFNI
Chain of Ku (Ku70-Ku80);Cdc13 (Q04437 whole entry, chain 2 of 2): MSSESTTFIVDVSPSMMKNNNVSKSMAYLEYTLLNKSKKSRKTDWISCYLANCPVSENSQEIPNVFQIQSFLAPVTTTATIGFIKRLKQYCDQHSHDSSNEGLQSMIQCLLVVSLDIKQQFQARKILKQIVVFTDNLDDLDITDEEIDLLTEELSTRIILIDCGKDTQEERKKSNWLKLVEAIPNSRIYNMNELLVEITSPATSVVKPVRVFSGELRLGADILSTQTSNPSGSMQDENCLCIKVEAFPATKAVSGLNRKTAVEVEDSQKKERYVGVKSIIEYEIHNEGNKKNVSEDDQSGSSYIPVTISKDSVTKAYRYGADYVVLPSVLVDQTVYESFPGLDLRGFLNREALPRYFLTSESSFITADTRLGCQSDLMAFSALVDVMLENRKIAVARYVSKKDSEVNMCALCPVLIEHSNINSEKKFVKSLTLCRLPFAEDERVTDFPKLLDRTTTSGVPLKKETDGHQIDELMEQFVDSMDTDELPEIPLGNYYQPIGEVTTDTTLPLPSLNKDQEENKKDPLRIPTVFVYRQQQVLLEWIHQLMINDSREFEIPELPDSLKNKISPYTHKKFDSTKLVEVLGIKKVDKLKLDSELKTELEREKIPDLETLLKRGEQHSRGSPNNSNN

Row | Binder | Kd (Cdc13 [1]) | binding result (Cdc13-K504E) | further results
1 | B1 |  |  | stoichiometry N (SEC): 2
2 | B2 | ~5 nM | binds | 
3 | B3 | < 2.5 nM | binds | binding result (Ku (Ku70-Ku80);Cdc13): binds
4 | B4 |  | binds | 
5 | B5 |  |  | binding result (Cdc13 [2]): binds; binding result (Cdc13-OB234): binds
6 | B6 | ~20 nM |  | 
7 | B7 | ~300 nM |  | binding result (RPA): no binding
8 | B8 |  |  | binding result (Cdc13 [3]): no binding
